Measured values taken from US20240018502A1.
Changes are numbered by the printed parent chain. Numbers in names are those of the source. Each block holds one binder with its values, some of them ahead of it.

Biological target: plasma purified human complement protein C3 (human) (UniProt P01024)
Assay: cell-based or functional assay

Chain of plasma purified human complement protein C3 (human) (P01024 23-667, chain 1 of 2): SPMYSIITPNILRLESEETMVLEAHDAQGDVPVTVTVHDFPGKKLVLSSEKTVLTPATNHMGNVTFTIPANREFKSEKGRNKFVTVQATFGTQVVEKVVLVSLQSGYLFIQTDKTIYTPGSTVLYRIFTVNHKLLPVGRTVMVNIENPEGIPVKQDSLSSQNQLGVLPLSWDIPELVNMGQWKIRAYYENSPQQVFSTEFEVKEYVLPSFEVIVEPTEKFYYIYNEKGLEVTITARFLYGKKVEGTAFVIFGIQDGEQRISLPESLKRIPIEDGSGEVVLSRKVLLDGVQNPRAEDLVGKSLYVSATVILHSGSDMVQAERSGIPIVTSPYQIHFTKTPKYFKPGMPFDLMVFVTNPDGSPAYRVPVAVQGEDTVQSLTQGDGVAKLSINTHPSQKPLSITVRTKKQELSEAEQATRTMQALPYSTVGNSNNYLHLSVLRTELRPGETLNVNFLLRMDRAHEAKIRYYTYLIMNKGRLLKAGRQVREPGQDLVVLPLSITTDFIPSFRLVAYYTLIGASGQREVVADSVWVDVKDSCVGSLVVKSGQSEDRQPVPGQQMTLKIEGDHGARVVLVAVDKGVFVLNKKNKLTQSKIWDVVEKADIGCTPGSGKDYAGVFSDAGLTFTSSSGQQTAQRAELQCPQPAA
Chain of plasma purified human complement protein C3 (human) (P01024 672-1663, chain 2 of 2): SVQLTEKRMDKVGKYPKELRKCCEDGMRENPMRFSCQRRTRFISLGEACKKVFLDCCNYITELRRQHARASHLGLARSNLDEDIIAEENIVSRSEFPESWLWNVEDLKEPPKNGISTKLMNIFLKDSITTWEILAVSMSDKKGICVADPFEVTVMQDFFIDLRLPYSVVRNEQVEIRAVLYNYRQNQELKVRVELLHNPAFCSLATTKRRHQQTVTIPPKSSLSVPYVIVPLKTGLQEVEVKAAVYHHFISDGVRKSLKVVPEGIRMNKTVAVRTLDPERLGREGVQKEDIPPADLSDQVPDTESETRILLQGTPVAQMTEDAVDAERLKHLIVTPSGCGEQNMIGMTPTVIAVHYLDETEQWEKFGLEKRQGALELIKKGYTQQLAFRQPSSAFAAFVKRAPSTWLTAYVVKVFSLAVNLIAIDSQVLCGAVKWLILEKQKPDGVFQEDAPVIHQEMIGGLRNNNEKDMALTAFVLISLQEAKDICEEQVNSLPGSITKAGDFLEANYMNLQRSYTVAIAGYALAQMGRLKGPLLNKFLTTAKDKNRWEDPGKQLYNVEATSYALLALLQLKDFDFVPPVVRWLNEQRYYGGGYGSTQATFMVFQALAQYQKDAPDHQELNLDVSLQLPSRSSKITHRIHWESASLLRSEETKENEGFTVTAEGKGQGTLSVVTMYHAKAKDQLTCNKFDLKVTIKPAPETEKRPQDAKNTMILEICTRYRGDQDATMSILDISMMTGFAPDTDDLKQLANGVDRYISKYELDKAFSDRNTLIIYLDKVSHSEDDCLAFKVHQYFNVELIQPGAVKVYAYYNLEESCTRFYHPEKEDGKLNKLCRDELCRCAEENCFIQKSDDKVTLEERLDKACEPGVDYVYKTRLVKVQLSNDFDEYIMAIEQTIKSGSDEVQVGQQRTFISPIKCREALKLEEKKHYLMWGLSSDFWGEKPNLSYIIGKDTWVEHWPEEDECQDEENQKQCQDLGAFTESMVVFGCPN

B1: MTSP-1 I41R/ins97aE/F97T/T98G/F99L/C122S/G151D/Q175L/Q192E (enzyme)
chain: VVGGTDADEGEWPWQVSLHALGQGHRCGASLISPNWLVSAAHCYIDDRGFRYSDPTQWTAFLGLHDQSQRSAPGVQERRLKRIISHPFFNDTEGLDYDIALLELEKPAEYSSMVRPISLPDASHVFPAGKAIWVTGWGHTQYGGTDALILQKGEIRVINQTTCENLLPQLITPRMMCVGFLSGGVDSCEGDSGGPLSSVEADGRIFQAGVVSWGDGCAQRNKPGVYTRLPLFRDWIKENTGV
EC50 of hC3 cleavage: 163 nM

B4: MTSP-1 I41R/ins97aE/F97T/T98G/F99L/C122S/G151D/Q175I/Q192D (enzyme)
chain: B1 chain with L170I, E189D
EC50 of hC3 cleavage: 1750 nM

B9: MTSP-1 I41R/ins97aE/F97T/T98G/F99L/C122S/G151D/Q175T/Q192D (enzyme)
chain: B1 chain with L170T, E189D
EC50 of hC3 cleavage: 1620 nM

B10: MTSP-1 I41R/F97T/ins97aE/T98G/F99L/C122S/G151E/Q175T/Q192E (enzyme)
chain: B1 chain with D146E, L170T
EC50 of hC3 cleavage: 363 nM

B11: MTSP-1 F97Q/ins97aT/T98M/C122S/Q192E/D217R/K224L (enzyme)
chain: B1 chain with R26I, T92Q, E93T, G94M, L95F, D146G, L170Q, D215R, K222L
EC50 of hC3 cleavage: 2450 nM

B12: MTSP-1 E24K/ins97aE/F97T/T98G/F99L/C122S/A152S/Q175L/Q192D (enzyme)
chain: B1 chain with E9K, R26I, D146G, A147S, E189D
EC50 of hC3 cleavage: 291 nM

B13: MTSP-1 F97M/ins97aD/T98D/F99L/C122S/Q192T (enzyme)
chain: B1 chain with R26I, T92M, E93D, G94D, D146G, L170Q, E189T
EC50 of hC3 cleavage: 151 nM

B16: MTSP-1 I41R/F97T/ins97aE/T98G/F99L/C122S/G151N/Q175I/Q192D (enzyme)
chain: B1 chain with D146N, L170I, E189D
EC50 of hC3 cleavage: 8370 nM

B18: MTSP-1 D96V/ins97aE/F97T/T98G/F99L/C122S/Q175L/Q192D (enzyme)
chain: B1 chain with R26I, D91V, D146G, E189D
EC50 of hC3 cleavage: 258 nM

B21: MTSP-1 H40P/I41R/ins97aE/F97T/T98G/F99L/C122S/Q175L/Q192E (enzyme)
chain: B1 chain with H25P, D146G
EC50 of hC3 cleavage: 442 nM

B24: MTSP-1 F97N/ins97aT/T98Y/F99N/C122S (enzyme)
chain: B1 chain with R26I, T92N, E93T, G94Y, L95N, D146G, L170Q, E189Q
EC50 of hC3 cleavage: 184 nM

B26: MTSP-1 I41R/Y59F/ins97aE/F97T/T98G/F99L/C122S/Q175L/Q192D (enzyme)
chain: B1 chain with Y44F, D146G, E189D
EC50 of hC3 cleavage: 288 nM

B31: MTSP-1 I41R/F97T/ins97aE/T98G/F99L/C122S/G151D/Q175I/Q192E (enzyme)
chain: B1 chain with L170I
EC50 of hC3 cleavage: 2070 nM

B34: MTSP-1 I41R/F97T/ins97aE/T98G/F99L/C122S/G151N/Q175I/Q192E (enzyme)
chain: B1 chain with D146N, L170I
EC50 of hC3 cleavage: 1030 nM

B37: MTSP-1 I41R/F97T/ins97aE/T98G/F99L/C122S/G151N/Q175S/Q192E (enzyme)
chain: B1 chain with D146N, L170S
EC50 of hC3 cleavage: 267 nM

B40: MTSP-1 I41R/ins97aE/F97T/T98G/F99L/A112V/C122S/Q175L/Q192E (enzyme)
chain: B1 chain with A108V, D146G
EC50 of hC3 cleavage: 288 nM

B41: MTSP-1 H40P/I41R/ins97aE/F97T/T98G/F99L/C122S/G151D/Q175L/Q192E (enzyme)
chain: B1 chain with H25P
EC50 of hC3 cleavage: 212 nM

B45: MTSP-1 H40P/I41R/F99L/C122S/G151K/Q192G (enzyme)
chain: VVGGTDADEGEWPWQVSLHALGQGPRCGASLISPNWLVSAAHCYIDDRGFRYSDPTQWTAFLGLHDQSQRSAPGVQERRLKRIISHPFFNDFTLDYDIALLELEKPAEYSSMVRPISLPDASHVFPAGKAIWVTGWGHTQYGGTKALILQKGEIRVINQTTCENLLPQQITPRMMCVGFLSGGVDSCGGDSGGPLSSVEADGRIFQAGVVSWGDGCAQRNKPGVYTRLPLFRDWIKENTGV
EC50 of hC3 cleavage: 96.1 nM

B46: MTSP-1 H40R/I41H/F99L/C122S/G151E/Q192G (enzyme)
chain: B45 chain with P25R, R26H, K145E
EC50 of hC3 cleavage: 829 nM

B47: MTSP-1 H40R/I41H/F97D/F99L/C122S/G151N/Q192H/D217K/K224A (enzyme)
chain: B45 chain with P25R, R26H, F92D, K145N, G188H, D214K, K221A
EC50 of hC3 cleavage: 137 nM

B48: MTSP-1 H40R/I41H/F97D/F99L/C122S/G151N/Q192N/D217L/K224R (enzyme)
chain: B45 chain with P25R, R26H, F92D, K145N, G188N, D214L, K221R
EC50 of hC3 cleavage: 346 nM

B49: MTSP-1 H40P/I41R/F99L/C122S/G151E/Q192G (enzyme)
chain: B45 chain with K145E
EC50 of hC3 cleavage: 153 nM

B50: MTSP-1 H40R/I41H/Y60gF/F97D/F99L/C122S/Q175K/Q192G/D217R/K224Q (enzyme)
chain: B45 chain with P25R, R26H, Y52F, F92D, K145G, Q169K, D214R, K221Q
EC50 of hC3 cleavage: 93.4 nM

Now from value to binder:

EC50 of hC3 cleavage: 311 nM
B2: MTSP-1 I41R/ins97aE/F97T/T98G/F99L/C122S/G151N/Q175L/Q192E (enzyme)
chain: B1 chain with D146N

EC50 of hC3 cleavage: 5000 nM
B3: MTSP-1 ins97aD/F97T/T98S/F99L/C122S/Q192E/D217Y/K224R (enzyme)
chain: B1 chain with R26I, E93D, G94S, D146G, L170Q, D215Y, K222R

EC50 of hC3 cleavage: 248 nM
B5: MTSP-1 ins97aV/F97Q/T98P/F99L/C122S/Q175F/Q192D (enzyme)
chain: B1 chain with R26I, T92Q, E93V, G94P, D146G, L170F, E189D

EC50 of hC3 cleavage: 289 nM
B6: MTSP-1 Y59F/F97T/ins97aE/T98G/F99L/C122S/Q175L/Q192D (enzyme)
chain: B1 chain with R26I, Y44F, D146G, E189D

EC50 of hC3 cleavage: 743 nM
B7: MTSP-1 I41R/ins97aE/F97T/T98G/F99L/C122S/G151D/Q175T/Q192E (enzyme)
chain: B1 chain with L170T

EC50 of hC3 cleavage: 2790 nM
B8: MTSP-1 ins97aG/F97N/T98D/F99L/C122S/Q192E/D217H/K224A (enzyme)
chain: B1 chain with R26I, T92N, E93G, G94D, D146G, L170Q, D215H, K222A

EC50 of hC3 cleavage: 383 nM
B14: MTSP-1 ins97aE/F97T/T98G/F99L/C122S/Q175L/Q192E/Q209L (enzyme)
chain: B1 chain with R26I, D146G, Q207L

EC50 of hC3 cleavage: 200 nM
B15: MTSP-1 ins97aA/F97G/T98N/F99L/C122S/Q175M/Q192T/K224A (enzyme)
chain: B1 chain with R26I, T92G, E93A, G94N, D146G, L170M, E189T, K222A

EC50 of hC3 cleavage: 2750 nM
B17: MTSP-1 ins97aN/F97H/T98D/F99L/C122S/Q192E/D217Q/K224S (enzyme)
chain: B1 chain with R26I, T92H, E93N, G94D, D146G, L170Q, D215Q, K222S

EC50 of hC3 cleavage: 622 nM
B19: MTSP-1 I41R/ins97aE/F97T/T98G/F99L/C122S/G151N/Q175L/Q192D (enzyme)
chain: B1 chain with D146N, E189D

EC50 of hC3 cleavage: 293 nM
B20: MTSP-1 Y59F/D96V/ins97aE/F97T/T98G/F99L/C122S/Q175L/Q192E (enzyme)
chain: B1 chain with R26I, Y44F, D91V, D146G

EC50 of hC3 cleavage: 1770 nM
B22: MTSP-1 I41R/ins97aE/F97T/T98G/F99L/C122S/G151E/Q175T/Q192D (enzyme)
chain: B1 chain with D146E, L170T, E189D

EC50 of hC3 cleavage: 429 nM
B23: MTSP-1 ins97aE/F97T/T98G/F99L/C122S/I136M/L155M/N170D/Q175L/Q192E (enzyme)
chain: B1 chain with R26I, I132M, D146G, L150M, N165D

EC50 of hC3 cleavage: 341 nM
B25: MTSP-1 Y59F/ins97aE/F97T/T98G/F99L/C122S/Q175L/Q192E (enzyme)
chain: B1 chain with R26I, Y44F, D146G

EC50 of hC3 cleavage: 332 nM
B27: MTSP-1 ins97aE/F97T/T98G/F99L/C122S/L153Q/Q175L/Q192D (enzyme)
chain: B1 chain with R26I, D146G, L148Q, E189D

EC50 of hC3 cleavage: 9990 nM
B28: MTSP-1 I41R/ins97aE/F97T/T98G/F99L/C122S/G151N/Q175T/Q192D (enzyme)
chain: B1 chain with D146N, L170T, E189D

EC50 of hC3 cleavage: 274 nM
B29: MTSP-1 I41R/ins97aE/F97T/T98G/F99L/C122S/G151S/Q175L/Q192E (enzyme)
chain: B1 chain with D146S

EC50 of hC3 cleavage: 280 nM
B30: MTSP-1 S90T/D96A/ins97aE/F97T/T98G/F99L/C122S/Q175L/Q192D (enzyme)
chain: B1 chain with R26I, S85T, D91A, D146G, E189D

EC50 of hC3 cleavage: 1410 nM
B32: MTSP-1 I41R/ins97aE/F97T/T98G/F99L/C122S/G151N/Q175T/Q192E (enzyme)
chain: B1 chain with D146N, L170T

EC50 of hC3 cleavage: 9870 nM
B33: MTSP-1 ins97aD/F97G/T98N/F99L/C122S/Q192E/D217Y/K224R (enzyme)
chain: B1 chain with R26I, T92G, E93D, G94N, D146G, L170Q, D215Y, K222R

EC50 of hC3 cleavage: 2080 nM
B35: MTSP-1 I41R/ins97aE/F97T/T98G/F99L/C122S/G151N/Q175S/Q192D (enzyme)
chain: B1 chain with D146N, L170S, E189D

EC50 of hC3 cleavage: 523 nM
B36: MTSP-1 I41R/ins97aE/F97T/T98G/F99L/C122S/Q175L/Q192E (enzyme)
chain: B1 chain with D146G

EC50 of hC3 cleavage: 53.5 nM
B38: MTSP-1 ins97aV/F97D/T98P/F99L/C122S/Q192G (enzyme)
chain: B1 chain with R26I, T92D, E93V, G94P, D146G, L170Q, E189G

EC50 of hC3 cleavage: 102 nM
B39: MTSP-1 Y59F/G60dS/R84H/ins97aE/F97T/T98G/F99L/C122S/Q175L/Q192E/V212I (enzyme)
chain: B1 chain with R26I, Y44F, G49S, R79H, D146G, V210I

EC50 of hC3 cleavage: 237 nM
B42: MTSP-1 Y59F/ins97aE/F97T/T98G/F99L/C122S/L153Q/Q175L/Q192E (enzyme)
chain: B1 chain with R26I, Y44F, D146G, L148Q

EC50 of hC3 cleavage: 5560 nM
B43: MTSP-1 ins97aD/F97Q/T98G/F99L/C122S/Q175L/Q192E/D217F/K224S (enzyme)
chain: B1 chain with R26I, T92Q, E93D, D146G, D215F, K222S

EC50 of hC3 cleavage: 249 nM
B44: MTSP-1 ins97aE/F97Y/T98S/F99L/C122S/Q192T/D217Q/K224R (enzyme)
chain: B1 chain with R26I, T92Y, G94S, D146G, L170Q, E189T, D215Q, K222R
